T1: human Nectin-4 expressed on cells (Nectin4-CHOK1, T47D, MDA-MB-468) (human, UniProt Q96NY8 32-510)
T1 sequence: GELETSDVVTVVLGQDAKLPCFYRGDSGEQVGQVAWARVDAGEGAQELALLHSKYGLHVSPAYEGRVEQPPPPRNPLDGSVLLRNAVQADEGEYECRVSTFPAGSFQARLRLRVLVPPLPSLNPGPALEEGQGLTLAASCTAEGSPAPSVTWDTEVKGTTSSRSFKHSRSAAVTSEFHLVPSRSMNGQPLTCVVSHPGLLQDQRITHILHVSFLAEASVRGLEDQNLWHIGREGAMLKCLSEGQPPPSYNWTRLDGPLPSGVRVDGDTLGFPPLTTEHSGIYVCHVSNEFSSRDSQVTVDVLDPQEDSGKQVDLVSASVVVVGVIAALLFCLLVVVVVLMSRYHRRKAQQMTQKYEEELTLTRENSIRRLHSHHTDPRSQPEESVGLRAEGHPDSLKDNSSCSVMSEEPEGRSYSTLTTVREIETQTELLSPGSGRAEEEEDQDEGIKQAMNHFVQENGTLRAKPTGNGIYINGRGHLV


Legend:
[1] = target: T1, human Nectin-4 expressed on cells …; test: cell-based or functional assay
[2] = target: T1, human Nectin-4 expressed on cells …; test: cell-based or functional assay; remark: listed apart in the source

IC50 (nM), DT3C antibody endocytosis assay on Nectin4-CHOK1 cells [2]	Binder	IC50(nM), killing of MDA-MB-468 (++) cells, CTG, 6 days [1]	IC50(nM), killing of T47D (+++) cells, CTG, 6 days [1]
–	ADC-2 (EV201-9-A) (antibody, human IgG1, kappa, V domains shown, compound 9-A (exatecan analog linker-drug) coupled to cysteine sulfhydryls after TCEP reduction; average loading n=3.90 for the whole antibody; positions not given) VH: EVQLVESGGGLVQPGGSLRLSCAASGFTFSSYNMNWVRQAPGKGLEWVSYISSSSSTIYYADSVKGRFTISRDNAKNSLSLQMNSLRDEDTAVYYCARAYYYGMDVWGQGTTVTVSS VL: DIQMTQSPSSVSASVGDRVTITCRASQGISGWLAWYQQKPGKAPKFLIYAASTLQSGVPSRFSGSGSGTDFTLTISSLQPEDFATYYCQQANSFPPTFGGGTKVEIKR	152 nM	193 nM
0.5 nM	positive control antibody EV201 (antibody, human IgG1, kappa, V domains shown) VH: EVQLVESGGGLVQPGGSLRLSCAASGFTFSSYNMNWVRQAPGKGLEWVSYISSSSSTIYYADSVKGRFTISRDNAKNSLSLQMNSLRDEDTAVYYCARAYYYGMDVWGQGTTVTVSS VL: DIQMTQSPSSVSASVGDRVTITCRASQGISGWLAWYQQKPGKAPKFLIYAASTLQSGVPSRFSGSGSGTDFTLTISSLQPEDFATYYCQQANSFPPTFGGGTKVEIKR	–	–
–	ADC-1 (NEC49-9-A) (antibody, V domains shown, compound 9-A (exatecan analog linker-drug) coupled to cysteine sulfhydryls after TCEP reduction; average loading n=4.90 for the whole antibody; positions not given) VH: EVQLLESGGGLVQPGGSLRLSCAASGFTFSSYAMSWVRQAPGKGLEWVSAIYSGGSTYYADSVKGRFTISRDNSKNTLYLQMNSLRAEDTAVYYCTRHGGDSGSWSYYYYGMDVWGQGTTVTVSS VL: not shown	87.5 nM	111 nM
0.43 nM	fully human antibody molecule NEC49 (antibody, V domains shown) VH: EVQLLESGGGLVQPGGSLRLSCAASGFTFSSYAMSWVRQAPGKGLEWVSAIYSGGSTYYADSVKGRFTISRDNSKNTLYLQMNSLRAEDTAVYYCTRHGGDSGSWSYYYYGMDVWGQGTTVTVSS VL: not shown	–	–

— patent US20240269307A1 (JIANGSU HENGRUI PHARMACEUTICALS, published 2024)
